Test results: publication doi:10.1101/2022.11.29.518402 (bioRxiv, 2022)

Key:
[1] = target: T1, EMC3(T102C)-GFP, cysteine in loop 2 of EMC3 (human, UniProt Q9P0I2 1-261, T102C); assay: cross-linking
T1 sequence: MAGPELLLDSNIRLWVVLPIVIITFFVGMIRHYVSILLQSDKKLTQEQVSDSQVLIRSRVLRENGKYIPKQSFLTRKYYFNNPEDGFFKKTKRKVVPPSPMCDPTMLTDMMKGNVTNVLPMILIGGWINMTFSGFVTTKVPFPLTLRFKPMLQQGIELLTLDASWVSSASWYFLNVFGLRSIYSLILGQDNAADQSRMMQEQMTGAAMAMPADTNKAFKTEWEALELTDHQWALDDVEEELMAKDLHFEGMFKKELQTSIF

[2] = target: T2, ALFA-EMC7(M214C), cysteine in helix 2 (H2) of EMC7 (human, UniProt Q9NPA0 24-242, M214C); assay: cross-linking
T2 sequence: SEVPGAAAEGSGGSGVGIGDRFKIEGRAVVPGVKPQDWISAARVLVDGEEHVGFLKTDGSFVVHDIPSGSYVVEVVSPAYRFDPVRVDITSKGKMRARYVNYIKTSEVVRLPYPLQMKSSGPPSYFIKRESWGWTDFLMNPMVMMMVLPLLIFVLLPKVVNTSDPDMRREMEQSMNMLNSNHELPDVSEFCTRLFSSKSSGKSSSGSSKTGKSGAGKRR

B1: SQS(L401C): 3xFLAG-Sec61β(2-59, C39S)-SQS(378-end) with a cysteine at L401 in the TMD (other)
chain: PGPTPSGTNVGSSGRSPSKAVAARAAGSTVRQRKNASSGTRSAGRTTSAGTGGMWRFYSRSHYSPIYLSFVMLLAALSWQYCTTLSQVTEDYVQTGEH
modifications: 35S-methionine labelled
Does B1 bind [1]?
Result: binds

Does B1 bind [2]?
Result: binds
